From US20030165934

Legend:
[1] = test system: full length Flag-ATRIP protein purified from insect cells following baculovirus infection
[2] = test system: Myc(3x)-tagged ATRIP
[3] = test system: NH2-terminal fragment of ATRIP isolated from bacteria
Sequence of NH2-terminal fragment of ATRIP isolated from bacteria (chain, as listed by the source): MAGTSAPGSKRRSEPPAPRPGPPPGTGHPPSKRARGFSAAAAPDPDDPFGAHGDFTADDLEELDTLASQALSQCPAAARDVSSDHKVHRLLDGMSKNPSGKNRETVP

Sequence of Flag-ATR (ATR tagged with a Flag epitope, overexpressed in 293/293T cells) (chain, as listed by the source): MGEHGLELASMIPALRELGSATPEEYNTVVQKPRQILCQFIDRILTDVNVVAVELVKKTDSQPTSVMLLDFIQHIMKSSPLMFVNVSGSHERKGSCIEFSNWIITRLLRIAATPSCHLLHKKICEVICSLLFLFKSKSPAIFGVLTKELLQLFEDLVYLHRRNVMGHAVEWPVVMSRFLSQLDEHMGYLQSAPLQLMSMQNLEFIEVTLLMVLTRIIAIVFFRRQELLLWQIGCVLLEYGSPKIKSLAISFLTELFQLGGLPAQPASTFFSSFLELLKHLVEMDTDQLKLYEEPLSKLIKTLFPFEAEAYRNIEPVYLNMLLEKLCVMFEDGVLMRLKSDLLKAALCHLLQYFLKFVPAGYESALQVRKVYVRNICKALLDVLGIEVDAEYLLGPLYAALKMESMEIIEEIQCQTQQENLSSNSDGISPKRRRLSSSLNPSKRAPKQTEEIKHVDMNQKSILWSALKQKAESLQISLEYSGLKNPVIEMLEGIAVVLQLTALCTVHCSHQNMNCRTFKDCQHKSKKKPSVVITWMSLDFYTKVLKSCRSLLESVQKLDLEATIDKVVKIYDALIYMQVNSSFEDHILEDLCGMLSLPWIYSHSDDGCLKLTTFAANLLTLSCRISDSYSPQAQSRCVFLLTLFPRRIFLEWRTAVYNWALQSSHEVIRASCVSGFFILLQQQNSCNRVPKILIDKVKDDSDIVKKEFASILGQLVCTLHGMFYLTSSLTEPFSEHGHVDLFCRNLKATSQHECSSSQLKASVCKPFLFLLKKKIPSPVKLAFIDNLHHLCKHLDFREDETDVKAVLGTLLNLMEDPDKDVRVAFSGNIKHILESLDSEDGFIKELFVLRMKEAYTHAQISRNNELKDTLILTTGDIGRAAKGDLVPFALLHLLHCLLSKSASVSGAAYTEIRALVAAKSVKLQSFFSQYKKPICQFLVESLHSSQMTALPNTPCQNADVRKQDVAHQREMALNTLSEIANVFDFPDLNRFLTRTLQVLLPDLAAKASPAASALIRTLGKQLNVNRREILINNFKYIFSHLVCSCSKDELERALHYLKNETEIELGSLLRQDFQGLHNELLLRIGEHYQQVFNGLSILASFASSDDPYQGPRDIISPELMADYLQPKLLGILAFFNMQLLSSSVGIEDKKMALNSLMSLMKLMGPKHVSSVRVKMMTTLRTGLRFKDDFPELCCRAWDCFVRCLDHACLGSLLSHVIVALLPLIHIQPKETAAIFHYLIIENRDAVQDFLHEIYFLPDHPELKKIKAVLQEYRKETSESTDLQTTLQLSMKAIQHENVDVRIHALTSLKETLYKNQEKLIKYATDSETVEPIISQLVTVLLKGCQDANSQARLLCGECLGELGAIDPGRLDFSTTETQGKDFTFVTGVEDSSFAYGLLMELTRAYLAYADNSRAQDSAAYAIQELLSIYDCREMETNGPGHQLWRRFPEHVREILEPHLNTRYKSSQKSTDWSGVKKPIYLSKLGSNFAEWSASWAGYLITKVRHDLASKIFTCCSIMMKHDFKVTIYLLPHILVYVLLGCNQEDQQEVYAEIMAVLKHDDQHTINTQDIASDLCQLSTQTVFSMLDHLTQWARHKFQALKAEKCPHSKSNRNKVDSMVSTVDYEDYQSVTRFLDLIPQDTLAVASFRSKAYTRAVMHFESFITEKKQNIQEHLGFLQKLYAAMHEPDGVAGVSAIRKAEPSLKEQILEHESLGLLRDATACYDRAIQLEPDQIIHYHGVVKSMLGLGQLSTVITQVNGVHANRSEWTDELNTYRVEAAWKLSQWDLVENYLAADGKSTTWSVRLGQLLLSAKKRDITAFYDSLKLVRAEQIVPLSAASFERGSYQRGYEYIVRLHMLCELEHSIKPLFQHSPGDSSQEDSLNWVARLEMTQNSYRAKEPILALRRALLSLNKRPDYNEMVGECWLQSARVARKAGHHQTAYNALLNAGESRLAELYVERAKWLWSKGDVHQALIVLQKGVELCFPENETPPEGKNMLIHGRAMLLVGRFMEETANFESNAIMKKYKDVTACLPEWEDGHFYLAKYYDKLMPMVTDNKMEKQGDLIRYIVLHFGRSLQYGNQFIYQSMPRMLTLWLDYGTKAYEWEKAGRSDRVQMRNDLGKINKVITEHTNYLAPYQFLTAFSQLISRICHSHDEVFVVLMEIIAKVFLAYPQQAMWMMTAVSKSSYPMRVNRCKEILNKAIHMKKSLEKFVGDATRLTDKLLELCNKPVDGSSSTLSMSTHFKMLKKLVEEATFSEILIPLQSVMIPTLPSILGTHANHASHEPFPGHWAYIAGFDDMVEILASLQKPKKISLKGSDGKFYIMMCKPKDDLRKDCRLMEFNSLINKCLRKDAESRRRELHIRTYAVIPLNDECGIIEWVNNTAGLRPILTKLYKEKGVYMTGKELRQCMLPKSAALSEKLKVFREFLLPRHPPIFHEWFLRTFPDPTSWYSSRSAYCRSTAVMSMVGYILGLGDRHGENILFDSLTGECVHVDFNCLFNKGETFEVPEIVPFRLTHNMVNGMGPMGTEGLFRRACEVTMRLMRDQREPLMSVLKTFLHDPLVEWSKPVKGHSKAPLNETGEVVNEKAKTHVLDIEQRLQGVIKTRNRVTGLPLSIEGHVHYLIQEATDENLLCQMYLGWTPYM

Question: Which “phosphorylation in a kinase reaction” value [1] does the source give for “Flag-ATR (ATR tagged with a Flag epitope, overexpressed in 293/293T cells)” here?
Answer: recombinant full-length ATRIP isolated from baculovirus-infected insect cells and an NH2-terminal fragment of ATRIP isolated from bacteria could both be phosphorylated when placed in a kinase reaction with ATR isolated from human cells

Question: What about the “^32P-labeling in kinase assay” value [2] of the same substance?
Answer: kinase assays with Flag-ATR immunoprecipitated from cells that also expressed Myc-ATRIP revealed ^32P-labeling of co-immunoprecipitated Myc-ATRIP

Question: What about the “phosphorylation in a kinase reaction” value [3] of the same substance?
Answer: recombinant full-length ATRIP isolated from baculovirus-infected insect cells and an NH2-terminal fragment of ATRIP isolated from bacteria could both be phosphorylated when placed in a kinase reaction with ATR isolated from human cells
